Measurements as given in patent US20210230304A1.

Target: Chicken egg white-derived lysozyme (Sigma-Aldrich) (chicken) (UniProt P00698)
Experiment: SPR, Biacore T200; antigen immobilised, antibody as analyte

Chicken egg white-derived lysozyme (Sigma-Aldrich) (chicken), sequence (P00698 19-147): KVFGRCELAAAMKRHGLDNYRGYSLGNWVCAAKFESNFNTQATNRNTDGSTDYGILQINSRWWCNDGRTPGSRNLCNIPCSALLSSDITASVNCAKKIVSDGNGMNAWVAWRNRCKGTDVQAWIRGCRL

Kd: 0.177 nM
Substance: mouse anti-lysozyme antibody of clone Hy-HEL5, wild-type
